Experimental data from patent US20140274782A1 (Stanford University, published 2014).
Positions count from the first letter of the chain named.

Columns and labels:
[1] = target: T1, biotinylated di-methylated H4K20 peptide (H4 amino acids 1-23) (UniProt P62805 2-24, dimethyl-lysine at K20; biotinylated); test: peptide pull-down, Western blot
T1 construct: range 1-23; also called H4K20me2

[2] = target: T2, biotinylated mono-methylated H4K20 peptide (H4 amino acids 1-23) (UniProt P62805 2-24, monomethyl-lysine at K20; biotinylated); test: peptide pull-down, Western blot
T2 construct: range 1-23; also called H4K20me1

[3] = target: T3, p53 mono-methylated at lysine 382 by SET8 (UniProt P04637 1-393, monomethyl-lysine at K382); test: Far Western on in vitro methylation reactions
T3 construct: also called p53K382me1; monomethylated p53

[4] = target: recombinant H3 dimethylated at lysine 9 by G9a SET domain (UniProt P68431 2-136); test: Far Western on in vitro methylation reactions
[5] = target: T4, RelA mono-methylated at lysine 310 by SETD6 (293T cells) (UniProt Q04206 1-551, monomethyl-lysine at K310); test: GSH-Sepharose pull-down from 293T nuclear extract, Western blot
T4 construct: also called RelAK310me1; methylated RelA

[6] = target: H3 from HeLa nuclear extract (UniProt P68431 2-136); test: GSH-Sepharose pull-down from HeLa nuclear extract, Western blot
[7] = target: T5, 3× Flag-SIRT1 methylated by G9a at lysine 622 (293T cells) (UniProt Q96EB6 1-747, methyl-lysine at K622 (state not stated)); test: GSH-Sepharose pull-down from 293T nuclear extract, anti-Flag Western blot
T5 construct: also called methylated SIRT1; not shown: 3× Flag tag of p3×FLAG-CMV-7
T5 sequence (looked up): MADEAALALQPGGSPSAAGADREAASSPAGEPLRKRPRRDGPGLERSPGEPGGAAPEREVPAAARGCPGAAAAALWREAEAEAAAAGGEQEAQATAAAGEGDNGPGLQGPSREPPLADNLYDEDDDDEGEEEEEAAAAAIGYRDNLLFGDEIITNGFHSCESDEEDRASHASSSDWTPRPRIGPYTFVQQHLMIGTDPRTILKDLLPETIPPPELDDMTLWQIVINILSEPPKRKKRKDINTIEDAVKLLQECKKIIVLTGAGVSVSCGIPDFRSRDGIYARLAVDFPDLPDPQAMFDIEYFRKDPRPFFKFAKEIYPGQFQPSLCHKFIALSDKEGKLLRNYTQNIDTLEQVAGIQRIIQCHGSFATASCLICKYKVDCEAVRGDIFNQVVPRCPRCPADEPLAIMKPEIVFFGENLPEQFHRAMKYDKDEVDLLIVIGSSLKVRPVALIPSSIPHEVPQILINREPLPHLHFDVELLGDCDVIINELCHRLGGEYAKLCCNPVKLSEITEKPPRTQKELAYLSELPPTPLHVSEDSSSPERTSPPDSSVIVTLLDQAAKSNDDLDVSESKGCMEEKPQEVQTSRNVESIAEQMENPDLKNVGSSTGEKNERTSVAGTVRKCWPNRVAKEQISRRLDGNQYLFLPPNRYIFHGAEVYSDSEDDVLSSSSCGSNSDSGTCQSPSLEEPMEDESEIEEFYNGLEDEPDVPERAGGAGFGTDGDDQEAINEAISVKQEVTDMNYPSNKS

[8] = target: T6, recombinant p53 carrying K382R substitution (UniProt P04637 1-393); test: Far Western on in vitro methylation reactions
T6 construct: also called p53K382R

[9] = target: T7, RelA carrying K310R substitution (UniProt Q04206 1-551); test: GSH-Sepharose pull-down from 293T nuclear extract, Western blot
T7 construct: also called RelAK310R

3× Flag-SIRT1K622R = target: T8, 3× Flag-SIRT1K622R (UniProt Q96EB6 1-747); test: GSH-Sepharose pull-down from 293T nuclear extract, anti-Flag Western blot
T8 construct: not shown: 3× Flag tag of p3×FLAG-CMV-7
T8 sequence (looked up): T5 sequence (looked up) with K622R

[10] = target: T1, biotinylated di-methylated H4K20 …; test: peptide pull-down, α-Flag Western blot
[11] = target: T2, biotinylated mono-methylated H4K20 …; test: peptide pull-down, α-Flag Western blot
[12] = target: T3, p53 mono-methylated at lysine 382 by …; test: Far Western, α-Flag detection (FIG. 9C)

B1: GST-tagged 3×MBTD355N (methyllysine-binding mutant) (designed binder)
chain: EEWSSSQPATGEKKECWSWESYLEEQKAITAPVSLFQDSQAVTHNKNGFKLGMKLEGIDPQHPSMYFILTVAEVCGYRLRLHFDGYSECHDFWVNANSPDIHPAGWFEKTGHKLQPPKGYKEEEFSWSQYLRSTRAQAAPKHLFVSQSHSPPPLGFQVGMKLEAVNRMNPSLVCVASVTDVVDSRFLVHFDNWDDTYDYWCDPSSPYIHPVGWCQKQGKPLTPPQDYPDPDNFCWEKYLEETGASAVPTWAFKVRPPHSFLVNMKLEAVDRRNPALIRVASVEDVEDHRIKIHFDGWSHGYDFWIDADHPDIHPAGWCSKTGHPLQPPLGPREPSSASPGG
notes: Negative control; also called GST-3×MBTD355N; point-mutant; not shown: GST tag and PreScission linker of the pGEX6P1 vector at the N end
[1]
  binding result: no binding (tested: 1 µg protein and 1 µg peptide)
[2]
  binding result: no binding (tested: 1 µg protein and 1 µg peptide)
[3]
  binding result: no binding
[4]
  binding result: no binding
[5]
  binding result: no binding
[6]
  binding result: no binding
[7]
  binding result: no binding

B2: GST-tagged 3×MBT (three MBT repeats of L3MBTL1, amino acids 190-530, expressed as a GST fusion) (designed binder, not shown: a dimerising Fc or GST)
chain: B1 chain with N166D
notes: Used in solution (peptide pull-down, Far Western, peptide array) and coupled to GSH-Sepharose (protein pull-down); also called GST-3×MBT; 3xMBT
[8]
  binding result: no binding
[9]
  binding result: no binding
3× Flag-SIRT1K622R
  binding result: no binding

B3: 3×MBTD355N-Flag (C-terminally Flag-tagged 3×MBTD355N) (designed binder, not shown: small tags and cut ends)
chain: B1 chain
[10]
  binding result: no binding
[11]
  binding result: no binding

B4: 3× Flag-3×MBTD355N (designed binder)
chain: B1 chain
notes: also called N-terminally Flag-tagged 3×MBTD355N; not shown: made by PreScission cleavage of the GST version
[10]
  binding result: no binding
[11]
  binding result: no binding
[12]
  binding result: no binding

B5: GST-3× Flag-3×MBTD355N (designed binder, not shown: a dimerising Fc or GST; small tags and cut ends)
chain: B1 chain
[12]
  binding result: no binding
